In patent publication US20250352661A1 (MYTHIC THERAPEUTICS, published 2025):

T1: Human LRRC15 Protein, His Tag (Acro Biosystems) (human, UniProt Q8TF66 22-538, limits assumed)
T1 construct: Bought protein with His tag
T1 sequence (looked up): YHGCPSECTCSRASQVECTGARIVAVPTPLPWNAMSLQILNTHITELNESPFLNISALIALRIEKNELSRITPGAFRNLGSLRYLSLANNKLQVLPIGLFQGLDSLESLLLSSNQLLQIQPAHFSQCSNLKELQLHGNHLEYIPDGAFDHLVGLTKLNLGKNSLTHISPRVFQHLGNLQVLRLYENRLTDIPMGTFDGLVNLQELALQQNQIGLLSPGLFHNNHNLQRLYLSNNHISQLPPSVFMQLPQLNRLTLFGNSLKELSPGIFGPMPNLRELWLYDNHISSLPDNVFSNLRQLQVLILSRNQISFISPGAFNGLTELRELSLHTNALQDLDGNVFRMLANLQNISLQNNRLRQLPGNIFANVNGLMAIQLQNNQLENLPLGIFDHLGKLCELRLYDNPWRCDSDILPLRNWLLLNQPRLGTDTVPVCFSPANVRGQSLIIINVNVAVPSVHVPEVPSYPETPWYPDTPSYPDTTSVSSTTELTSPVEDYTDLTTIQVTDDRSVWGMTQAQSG

T2: Human LRRC15 Protein, His Tag (Acro Biosystems) (human, UniProt Q8TF66 22-538, limits assumed)
T2 construct: not shown: His tag
T2 sequence (looked up): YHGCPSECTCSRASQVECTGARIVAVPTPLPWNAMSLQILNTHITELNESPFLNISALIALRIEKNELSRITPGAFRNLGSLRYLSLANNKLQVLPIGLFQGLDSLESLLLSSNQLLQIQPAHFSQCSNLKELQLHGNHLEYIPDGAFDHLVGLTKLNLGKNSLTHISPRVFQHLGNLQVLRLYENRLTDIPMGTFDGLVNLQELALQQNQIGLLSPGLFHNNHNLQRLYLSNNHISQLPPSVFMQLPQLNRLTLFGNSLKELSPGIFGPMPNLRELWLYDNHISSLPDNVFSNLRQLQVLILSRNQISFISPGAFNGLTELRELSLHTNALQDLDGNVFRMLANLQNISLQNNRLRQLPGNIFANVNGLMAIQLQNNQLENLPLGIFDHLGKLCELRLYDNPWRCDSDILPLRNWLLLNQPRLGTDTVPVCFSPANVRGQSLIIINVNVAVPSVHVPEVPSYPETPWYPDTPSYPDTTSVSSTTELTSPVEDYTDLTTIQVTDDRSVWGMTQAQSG


The binders below were run against T1, Human LRRC15 Protein, His Tag (Acro …) (assay: BLI; dissociation pH 7.4 black, pH 5.4 grey [D00010 FIG. 1H]).
From the text: For each individual plot, antigen binding proteins were captured on anti-human Fc biosensors and associated with LRRC15 at pH 7.4. Dissociation was at pH 7.4 (black) or pH 5.4 (grey). Major X-axis ticks=100 seconds, with left dashed vertical line=0 seconds. Major Y-axis ticks=0.5 nm and octet plots are shown MYT5712 and MYT6080-MYT6121.
Multiple LRRC15-binding monoclonal antibodies have been described in the literature and can be used as a template for engineering pH-dependent binding. We selected discovery RabMAb clone 15G7 (rabbit VH SEQ ID NO: 378, rabbit VL SEQ ID NO: 451; humanized VH SEQ ID NO: 382, humanized VL SEQ ID NO: 455) as a LRRC15-binding monoclonal antibody for pH-engineering via histidine scanning. […] To generate pH-dependent sequence variants, individual amino acid residues within the heavy chain CDRs were systematically substituted with a histidine (or alanine if H was already present in a given position; e.g., MYT6099), one at a time (rabbit, MYT6080-6121). Desirable mutations were transferred to a humanized framework (humanized, MYT 8387-8411). After allowing for four days of protein expression, cell culture supernatants were collected, quantified by SDS-PAGE analysis, and the pH dependence of the variant was evaluated using biolayer interferometry (BLI) on an Octet RED 96e instrument. Briefly, cell culture supernatants were diluted based on qualitative expression level of the variant determined by visual examination of SDS-PAGE gels, 5 μL of cell culture supernatant was diluted into 195 μL of 1×PBST, pH 7.4 for high expressors, 25 μL of cell culture supernatant was diluted into 175 μL of 1×PBST, pH 7.4 for medium expressors and 100 μL of cell culture supernatant was diluted into 100 μL of 1×PBST, pH 7.4 for low expressors for loading onto the sensor tips.

Row | binding result | Binder
1 | no binding (tested: 50 nM LRRC15) | MYT8435 (antibody, V domains shown, hu15G7 VL Y32H, Y92H, G96H; human Fc) VH: EVQLVESGGGLVQPGGSLRLSCTASGLDFRRTNYICWVRQAPGKGLEWVGCIYIADVVHYYASWAKGRFTFSRDTSKNTVYLQMNSLRAEDTAVYYCARGADGGFVYGMDLWGQGTLVTVSS VL: EIVMTQSPSTLSASVGDRVIITCQASQSIGNHLSWYQQKPGKAPKRLIYSASTLPSGVPSRFSGSGSGAEFTLTISSLQPDDFATYYCQNNHWLAHYGHPFGQGTKLTVL
2 | no binding (tested: 50 nM LRRC15) | MYT8437 (antibody, V domains shown, hu15G7 VL Y92H, W93H, G96H; human Fc) VH: EVQLVESGGGLVQPGGSLRLSCTASGLDFRRTNYICWVRQAPGKGLEWVGCIYIADVVHYYASWAKGRFTFSRDTSKNTVYLQMNSLRAEDTAVYYCARGADGGFVYGMDLWGQGTLVTVSS VL: EIVMTQSPSTLSASVGDRVIITCQASQSIGNYLSWYQQKPGKAPKRLIYSASTLPSGVPSRFSGSGSGAEFTLTISSLQPDDFATYYCQNNHHLAHYGHPFGQGTKLTVL
3 | no binding (tested: 50 nM LRRC15) | MYT8436 (antibody, V domains shown, hu15G7 VL Y32H, W93H, G96H; human Fc) VH: EVQLVESGGGLVQPGGSLRLSCTASGLDFRRTNYICWVRQAPGKGLEWVGCIYIADVVHYYASWAKGRFTFSRDTSKNTVYLQMNSLRAEDTAVYYCARGADGGFVYGMDLWGQGTLVTVSS VL: EIVMTQSPSTLSASVGDRVIITCQASQSIGNHLSWYQQKPGKAPKRLIYSASTLPSGVPSRFSGSGSGAEFTLTISSLQPDDFATYYCQNNYHLAHYGHPFGQGTKLTVL

Each binder was assayed against T2, Human LRRC15 Protein, His Tag (Acro …) (assay: BLI; dissociation pH 7.4 black, pH 5.4 grey [1/2); D00019 FIG. 4B (1/2]).
Experimental: Desirable mutations were transferred to a humanized framework (humanized, MYT 8387-8411). After allowing for four days of protein expression, cell culture supernatants were collected, quantified by SDS-PAGE analysis, and the pH dependence of the variant was evaluated using biolayer interferometry (BLI) on an Octet RED 96e instrument. Briefly, cell culture supernatants were diluted based on qualitative expression level of the variant determined by visual examination of SDS-PAGE gels, 5 μL of cell culture supernatant was diluted into 195 μL of 1×PBST, pH 7.4 for high expressors, 25 μL of cell culture supernatant was diluted into 175 μL of 1×PBST, pH 7.4 for medium expressors and 100 μL of cell culture supernatant was diluted into 100 μL of 1×PBST, pH 7.4 for low expressors for loading onto the sensor tips. The resulting diluted supernatants were then captured on an anti-human Fc sensor (Forte Bio). A baseline was established using 1×PBST (50 mM Potassium Phosphate Buffer+150 mM NaCl+0.05% Tween 20) pH 7.4, and the […] was associated with 50 nM of LRRC15 (Human LRRC15 Protein, His Tag, Acro Biosystems) in 1×PBST pH 7.4 for 120 sec to generate an association curve. In the dissociation phase, the antibody-antigen complex on the sensor was exposed to 1×PBST pH 7.4 or pH 5.4, for 300 sec. Association and dissociation phase curves were examined for the starting ABPC antibody (with no substitutions) and each corresponding antibody variant at pH 5.4 and pH 7.4 to inform on two criteria: a) enhanced dissociation (i.e., higher koff values) at pH 5.4 due to histidine substitution compared to the starting ABPC, (with no substitutions), and b) reduced dissociation at pH 7.4 (i.e., lower koff values) compared to pH 5.4 in the antibody variant itself and with the starting ABPC (with no substitutions).
The methods of Examples 9-10 were applied to RabMAb clone 29F1 (rabbit VH SEQ ID NO: 572 and VL SEQ ID NO: 578; and humanized VH SEQ ID NO: 576 and VL SEQ ID NO: 582).

Row | binding result | Binder
4 | binds | MYT9465 (antibody, V domains shown, also called hu29F1 VH F27D) VH: EVQLVESGGGLVQPGGSLRLSCTASGDSFSSSHWICWVRQAPGKGLEWVGCIYAGSIGSTYYASWAKGRFTISRDTSKNTVYLQMNSLRAEDTAVYYCARAPNDIYNYYFNLWGQGTLVTVSS VL: EIVMTQSPSTLSASVGDRVIITCQASENIYNYLAWYQQKPGKAPKLLIYYASTLASGVPSRFSGSGSGAEFTLTISSLQPDDFATYYCQSGYVSKSSTFGQGTKLTVL
5 | binds | MYT9470 (antibody, V domains shown, also called hu29F1 VH S32D) VH: EVQLVESGGGLVQPGGSLRLSCTASGFSFSSDHWICWVRQAPGKGLEWVGCIYAGSIGSTYYASWAKGRFTISRDTSKNTVYLQMNSLRAEDTAVYYCARAPNDIYNYYFNLWGQGTLVTVSS VL: EIVMTQSPSTLSASVGDRVIITCQASENIYNYLAWYQQKPGKAPKLLIYYASTLASGVPSRFSGSGSGAEFTLTISSLQPDDFATYYCQSGYVSKSSTFGQGTKLTVL
6 | binds | MYT9466 (antibody, V domains shown, also called hu29F1 VH S28D) VH: EVQLVESGGGLVQPGGSLRLSCTASGFDFSSSHWICWVRQAPGKGLEWVGCIYAGSIGSTYYASWAKGRFTISRDTSKNTVYLQMNSLRAEDTAVYYCARAPNDIYNYYFNLWGQGTLVTVSS VL: EIVMTQSPSTLSASVGDRVIITCQASENIYNYLAWYQQKPGKAPKLLIYYASTLASGVPSRFSGSGSGAEFTLTISSLQPDDFATYYCQSGYVSKSSTFGQGTKLTVL
7 | binds | MYT9469 (antibody, V domains shown, Humanized 29F1 VH aspartate variant; also called hu29F1 VH S31D) VH: EVQLVESGGGLVQPGGSLRLSCTASGFSFSDSHWICWVRQAPGKGLEWVGCIYAGSIGSTYYASWAKGRFTISRDTSKNTVYLQMNSLRAEDTAVYYCARAPNDIYNYYFNLWGQGTLVTVSS VL: EIVMTQSPSTLSASVGDRVIITCQASENIYNYLAWYQQKPGKAPKLLIYYASTLASGVPSRFSGSGSGAEFTLTISSLQPDDFATYYCQSGYVSKSSTFGQGTKLTVL
8 | binds | MYT9468 (antibody, V domains shown, also called hu29F1 VH S30D) VH: EVQLVESGGGLVQPGGSLRLSCTASGFSFDSSHWICWVRQAPGKGLEWVGCIYAGSIGSTYYASWAKGRFTISRDTSKNTVYLQMNSLRAEDTAVYYCARAPNDIYNYYFNLWGQGTLVTVSS VL: EIVMTQSPSTLSASVGDRVIITCQASENIYNYLAWYQQKPGKAPKLLIYYASTLASGVPSRFSGSGSGAEFTLTISSLQPDDFATYYCQSGYVSKSSTFGQGTKLTVL
